From the supplement of paper PMC12042874 come the findings set out here.

± gives the uncertainty stated by the source.

This data set is described as follows: amyloid nucleation score (Sup35N fusion, yeast selection) (log enrichment); library NNK1; higher = more nucleation; inactive = no reads after selection. The method, boiled down:
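Nucleation score is defined as the DiMSum log enrichment of output over input reads, with centring on the mode score of non-aggregating sequences. A minimum of 100 input reads was required for each sequence. Reads came from Illumina sequencing of plasmid inserts from psi-negative yeast expressing Sup35N fused to peptides of 20 random codons, induced with 100 μM copper sulfate for 24 hours and grown 7 days at 30°C on medium lacking adenine and uracil.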
GSYGNDVWRP: the amyloid nucleation score was -0.041 ± 0.47. The result for GCRMWFAWQVGVILMVDMFI reads 0.307 ± 0.81; that for GVLRHNCFIESGRIISVMVT, -0.404 ± 0.65; that for TMTSPVGWETSSFRRMDR, 0.796 ± 0.52. The result for LCFLWIGVP reads -0.241 ± 1; that for ADWTSSLNLGEYYMFKFSPE, 1.02 ± 0.38. The result for TISYLS reads 0.198 ± 0.39; that for YLILLWWTNCRARAKERVDR, -0.155 ± 1.1; that for GRKIDCGRLIMIAVRCNQVA, 0.358 ± 0.41.

QRKPVCSGLTLFHMLNRVTK returned an amyloid nucleation score of -0.484 ± 0.65. The result for VSSVGKMPDALRVKAKWIFM reads 0.141 ± 0.29; that for LNSLVKALQSVNNYVDLTYS, 0.358 ± 1.1; that for CLDMVWDLTVMFMF, 1.11 ± 0.19. With NLSGDDFGVNEKTSRWCQWG, the amyloid nucleation score came out at 0.397 ± 1.2. Under AYIDKMCTPYNKGRLLMHWY stands 1.97 ± 0.48. The result for CTQGCHRVNWSVTYRVVFLA reads 0.848 ± 0.42; that for HCLGIRMVRRYILDRRCHWV, “inactive”; that for INRCGGVPARLLLCKLGYLG, 0.298 ± 0.5.

In the case of GSQMYNVHVVCVT, the amyloid nucleation score turned out to be 0.154 ± 0.73. The result for ERYVLAPYQQTRRGNLQFRY reads 0.615 ± 0.63; that for LRKMLMDE, “inactive”; that for KVTLNFRSHSLENCDAYNKY, 3.15 ± 0.12. The result for LIMSFVFSI reads 4.57 ± 0.08. Under QSAYRSR stands “inactive”; under SDMLK, 0.324 ± 0.43.

For SIRVSDYQRVFNNIGMSNCN, the amyloid nucleation score was -0.454 ± 0.53.

As to APSYRATWRAVNCAILGPLY, the amyloid nucleation score is -0.567 ± 0.61. The result for TPYYPSQKQCRMPRGACVL reads -0.435 ± 0.48; that for VMKDTQLLCNFRVSRVLMFE, “inactive”; that for LHQSVMRWLAASWCPQIKLG, 0.338 ± 0.97. Take SRCCGPCYTAV: the amyloid nucleation score was -0.115 ± 0.3. The result for PVQLRFRSSNIWTLMNQVFI reads 0.612 ± 0.95. As for MIPKNFLGGNPLQRRESPIC, the amyloid nucleation score was 0.828 ± 0.62.

As for LATGHVFYGFG, the amyloid nucleation score is -0.116 ± 0.36.

RDSINLLDFGIVITGAKKWS yielded an amyloid nucleation score of 0.218 ± 0.27. Take TTWER: the amyloid nucleation score amounted to 0.496 ± 1.2.

SMAIVDRWLMQGSSQPAGS yielded an amyloid nucleation score of 0.702 ± 0.53. The result for ALIYPILILYGV reads 1.52 ± 0.85; that for FGGWNYYYLAVQYIFLDTGV, 2.45 ± 0.15. Under EQHCNAMGVSRSGPWCDGEV stands 0.051 ± 0.85.

Substance VHVLWLWQSMLLVHWSAV returned an amyloid nucleation score of 1.29 ± 0.93.

For WMSLIGKNMRMIMVIKKWAL, the amyloid nucleation score result is “inactive”. The result for DEWCVG reads 0.017 ± 0.82; that for FLFAMFNSISMKSAKLKWNR, 3.91 ± 0.086. Under RGRTRLKFLCLLYWWGKTKG stands -0.4 ± 0.44; under YPCNLFCMMTLLNYLGSSVA, 6.49 ± 0.074.

SAELKDLRGKQLLAGGP showed an amyloid nucleation score of 0.53 ± 1.1. The result for FVNFGFAGIASWHFVLMFIK reads 0.1 ± 0.27. Under RYCVGLVRICLKLGVREICS stands 1.01 ± 0.97; under IVVFQGVCTKMLRTDELIWR, 1.18 ± 0.2; under GRMHKLVNCRAFTGLYKGIY, -1.03 ± 0.62. The result for DFWMSRKYLNVSMQ reads 3.98 ± 0.1.

YVAISHGQTPSLYL returned an amyloid nucleation score of -0.827 ± 1.5.

With YAFLSEYFSAK, the amyloid nucleation score is -0.054 ± 0.24. The result for RNLQILQDYKPSSNQCGRKE reads -0.885 ± 0.71. Under VPVGRWRSWICVRIRL stands 0.831 ± 0.65; under WGLSQSLCHSRNNLHNWISG, 0.207 ± 0.53; under SYSDICEVNLDTHKFVLGVR, -0.992 ± 0.49. In the case of ALYSQGSSTV, the amyloid nucleation score was -1.15 ± 1.1. With WTRIDSSVYARKGFCAPRLP, the amyloid nucleation score was 0.021 ± 1.1. The result for CTWYLLVSSSRLLTDSFLPS reads 1.32 ± 0.6; that for PLVCRGLLSRCGNPSGKCGR, -0.125 ± 1.7; that for LQTGRYDWKVDPINSSMESV, 0.26 ± 0.7.

In the case of NILDMCLKRYIFMLE, the amyloid nucleation score was 1.44 ± 0.37. In turn, IDMTEMKIRWV gave an amyloid nucleation score of -0.208 ± 0.27. The result for VYAYTQLKQGRRHEQGTWS reads “inactive”; that for KSWWNDVFVYVYQILEFHCR, 0.032 ± 1.2; that for SPAMYPHNSRFLMYITSFMQ, 1.08 ± 0.72. As for GLLLSCSWNIDVSA, the amyloid nucleation score was found to be 0.235 ± 0.56. LLDMHYTLEWCTKCYTDKVQ: the amyloid nucleation score was determined as 0.121 ± 0.26. Under CRGNLIL stands -0.578 ± 0.29. Substance ERSSAPECNFKYISYTGKS came in with an amyloid nucleation score of -0.881 ± 0.48.

The substance LCISARDLNNFGRNHMHFLL registered an amyloid nucleation score of -0.296 ± 0.34. The result for PCTMGMYIGAGHR reads 0.418 ± 1; that for VNYPEDPTSKEIIRHSLGTG, -1.13 ± 2.4. The result for TCIDVQQYDCLVFFYFLHGF reads “inactive”.

The substance SSYSYSDLRTRYIRITSQLD returned an amyloid nucleation score of 0.203 ± 0.47. The result for KTVVSELSVVNEVVA reads -0.359 ± 0.31; that for GQHMASNLERMV, 3.34 ± 0.085. The result for WMFIFRLTSTLYYHCC reads “inactive”.

YLQIWRLSRRSILL: the amyloid nucleation score result was “inactive”. The result for FGREPIRIKTYQSLKNRSLI reads -0.013 ± 0.24. Substance PSFRWIGSEMSTMFMLQVTL registered an amyloid nucleation score of 0.058 ± 0.55. Regarding SILSWLFSWTMLEEVI, the amyloid nucleation score result was “inactive”. Under LSFIACPYIVRVYAFNPRTG stands 6.16 ± 0.071; under NWHGSLKPPYACEGALRVWR, 6.26 ± 0.08. Under RYYVSSLRPVRRQSRKDGCG stands -0.414 ± 0.63; under PCINRFHGIGFHCRLWTVYV, 0.816 ± 0.98; under GLWLKLLVDLKHMKIEHPWH, 0.933 ± 0.72. Under VFGVGGTYLFIDVEAVWGSG stands 1.61 ± 0.57; under VANFET, -0.769 ± 1.1. Substance GVDGFWRMVSKLPHGRLDQH displayed an amyloid nucleation score of -0.123 ± 0.38. Under FTSFFVSV stands -1.91 ± 1.9. Under YLRRHQRNLPEQCCEAGINV stands -1.37 ± 1.5; under VQNGGSLTMPRALLANTWMS, -0.671 ± 0.42; under GMWCLFRKCSVA, “inactive”.

Turning to CIVYFSCLMYHWILDC, the amyloid nucleation score stood at 0.422 ± 0.65. Consider SRWFCYRLVFTFVGPTRHLD, for which the amyloid nucleation score amounted to 0.172 ± 0.77. The result for CYRLWHGCKMGIPVQYLYGS reads -0.113 ± 0.36; that for YIPTCAGDWLQFNYYNLMCW, 0.149 ± 0.38.

The substance RVPATLNLLGVRQGRD gave an amyloid nucleation score of 0.26 ± 0.72. The result for CKGFK reads “inactive”.
